The text below walks through data of paper PMC7840605, “3-Hydroxyphthalic Anhydride-Modified Chicken Ovalbumin as a Potential Candidate Inhibits SARS-CoV-2 Infection by Disrupting the Interaction of Spike Protein With Host ACE2 Receptor” (Frontiers in Pharmacology, 2020).

The target in the assay is SARS-CoV-2 spike (S) protein (SARS-CoV-2, UniProt P0DTC2). The assay can be described thus: cell-based or functional assay.

B1: chicken ovalbumin (natural protein)
chain: MGSIGAASMEFCFDVFKELKVHHANENIFYCPIAIMSALAMVYLGAKDSTRTQINKVVRFDKLPGFGDSIEAQCGTSVNVHSSLRDILNQITKPNDVYSFSLASRLYAEERYPILPEYLQCVKELYRGGLEPINFQTAADQARELINSWVESQTNGIIRNVLQPSSVDSQTAMVLVNAIVFKGLWEKAFKDEDTQAMPFRVTEQESKPVQMMYQIGLFRVASMASEKMKILELPFASGTMSMLVLLPDEVSGLEQLESIINFEKLTEWTSSNVMEERKIKVYLPRMKMEEKYNLTSVLMAMGITDVFSSSANLSGISSAESLKISQAVHAAHAEINEAGREVVGSAEAGVDAASVSEEFRADHPFLFCIKHIATNAVLFFGRCVSP
As for B1, the “IC50 against live SARS-CoV-2 in Vero E6 cells (CPE assay)” value is over 50 µM.
